Data taken from patent US20190194358A1 (ARIZONA BOARD OF REGENTS A BODY CORPORATE OF THE STATE OF …, published 2019).
Ends that are not written are not given here.

Assays:
Assay in all cases: Invitrogen ProtoArray Human Protein Microarray v4.0; biotinylated synbody, fluorescently labelled streptavidin; fluorescence intensity above background
NADK = molecular target: T1, NADK (human, UniProt O95544)
T1 construct: GST fusion on the array
T1 sequence (looked up): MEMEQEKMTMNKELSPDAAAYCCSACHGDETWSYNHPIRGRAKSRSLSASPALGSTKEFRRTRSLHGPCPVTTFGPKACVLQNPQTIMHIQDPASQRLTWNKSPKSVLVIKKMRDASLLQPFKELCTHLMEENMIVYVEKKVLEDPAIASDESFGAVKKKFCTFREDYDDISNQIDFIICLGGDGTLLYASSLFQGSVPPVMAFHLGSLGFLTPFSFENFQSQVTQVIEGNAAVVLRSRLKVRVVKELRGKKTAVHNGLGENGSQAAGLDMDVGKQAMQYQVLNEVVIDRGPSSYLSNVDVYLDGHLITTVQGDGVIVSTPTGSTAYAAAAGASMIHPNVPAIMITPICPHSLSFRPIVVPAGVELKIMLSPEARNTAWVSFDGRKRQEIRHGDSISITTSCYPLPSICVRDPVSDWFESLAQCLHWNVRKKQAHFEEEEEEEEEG
Experimental: (§1) The prescribed cover slip was placed over the array and adjusted to remove air bubbles. The array was incubated in a 50 ml conical tube, printed side up, for 1.5 hours at 4 C without shaking. The array was then removed from the conical tube inserted diagonally into the array chamber, kept on ice. 8 ml probing buffer was added to the chamber wall. The cover slip was removed and the array was incubated in probing buffer for 1 minute on ice. The probing buffer was decanted and drained. Two further washings were performed adding 8 ml probing buffer, incubating on ice for 1 minute, and decanting and draining. 5 nM fluorescently labeled streptavidin diluted in 6 ml probing buffer was incubated on the array for 30 minutes on ice in the dark, after which the solution was decanted and drained. Three wash steps were performed, each by adding 8 ml probing buffer, incubating for 1 minute on ice, decanting, and draining. The array was removed from the chamber, centrifuged at 800×g for 5 minutes at room temperature. The array was dried in the dark for 60 minutes at room temperature, after which it was scanned using a fluorescent microarray scanner and data was taken and analyzed.

ABHD14B = molecular target: T2, ABHD14B (human, UniProt Q96IU4)
T2 construct: GST fusion on the array
T2 sequence (looked up): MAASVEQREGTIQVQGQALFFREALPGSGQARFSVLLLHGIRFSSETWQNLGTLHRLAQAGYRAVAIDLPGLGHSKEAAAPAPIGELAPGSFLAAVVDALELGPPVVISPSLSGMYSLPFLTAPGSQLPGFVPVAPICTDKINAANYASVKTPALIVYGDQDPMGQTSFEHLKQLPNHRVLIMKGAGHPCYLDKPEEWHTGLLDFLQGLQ
Experimental: as §1

PTK2 = molecular target: T3, PTK2 (human, UniProt Q05397)
T3 construct: GST fusion on the array
Experimental: as §1

LACRT = molecular target: T4, LACRT (human, UniProt Q9GZZ8)
T4 construct: GST fusion on the array
T4 sequence (looked up): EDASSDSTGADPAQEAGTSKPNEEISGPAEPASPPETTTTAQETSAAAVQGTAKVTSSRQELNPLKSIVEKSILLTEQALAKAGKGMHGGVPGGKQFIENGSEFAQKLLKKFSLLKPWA
Experimental: as §1

ANXA1 = molecular target: T5, ANXA1 (human, UniProt P04083)
T5 construct: GST fusion on the array
T5 sequence (looked up): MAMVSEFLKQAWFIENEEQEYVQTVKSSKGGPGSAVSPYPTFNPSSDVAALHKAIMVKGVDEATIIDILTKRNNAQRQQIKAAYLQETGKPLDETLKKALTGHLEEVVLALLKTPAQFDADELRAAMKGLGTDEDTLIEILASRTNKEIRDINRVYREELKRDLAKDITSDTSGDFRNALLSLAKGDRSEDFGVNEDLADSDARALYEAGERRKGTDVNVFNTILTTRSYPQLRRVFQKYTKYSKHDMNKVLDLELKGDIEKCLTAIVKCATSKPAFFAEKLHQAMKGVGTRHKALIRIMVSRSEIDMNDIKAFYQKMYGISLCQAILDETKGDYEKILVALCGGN
Experimental: as §1

T3 sequence (Q05397 whole entry, the tested form may be a part): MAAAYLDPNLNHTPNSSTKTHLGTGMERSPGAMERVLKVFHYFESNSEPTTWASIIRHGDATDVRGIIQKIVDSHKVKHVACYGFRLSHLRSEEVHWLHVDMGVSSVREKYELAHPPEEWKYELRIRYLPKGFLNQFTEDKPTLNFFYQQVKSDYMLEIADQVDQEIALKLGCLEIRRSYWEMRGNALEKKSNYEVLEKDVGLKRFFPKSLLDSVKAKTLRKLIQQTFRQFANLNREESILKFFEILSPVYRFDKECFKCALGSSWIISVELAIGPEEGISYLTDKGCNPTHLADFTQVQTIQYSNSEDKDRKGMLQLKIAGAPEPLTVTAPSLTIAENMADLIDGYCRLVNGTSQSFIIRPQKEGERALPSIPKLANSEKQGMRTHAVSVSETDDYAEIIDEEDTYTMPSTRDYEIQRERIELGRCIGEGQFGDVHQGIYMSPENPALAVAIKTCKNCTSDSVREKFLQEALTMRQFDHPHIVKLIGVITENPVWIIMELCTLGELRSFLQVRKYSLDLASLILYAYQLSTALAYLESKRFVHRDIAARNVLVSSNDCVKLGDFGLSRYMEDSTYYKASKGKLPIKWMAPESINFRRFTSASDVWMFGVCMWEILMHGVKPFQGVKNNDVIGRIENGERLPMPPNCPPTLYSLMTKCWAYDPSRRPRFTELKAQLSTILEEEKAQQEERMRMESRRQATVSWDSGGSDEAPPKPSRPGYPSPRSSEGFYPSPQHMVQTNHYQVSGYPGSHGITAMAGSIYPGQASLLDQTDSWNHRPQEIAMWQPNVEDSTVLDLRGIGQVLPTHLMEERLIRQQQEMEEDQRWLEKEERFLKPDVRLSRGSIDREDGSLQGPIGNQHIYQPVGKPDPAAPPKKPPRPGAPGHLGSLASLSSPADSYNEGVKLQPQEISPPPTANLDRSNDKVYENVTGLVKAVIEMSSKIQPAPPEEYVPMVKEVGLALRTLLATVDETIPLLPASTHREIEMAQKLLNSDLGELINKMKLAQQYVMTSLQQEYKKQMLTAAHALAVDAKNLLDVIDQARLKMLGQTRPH

binding result (NADK): no binding | binding result (ABHD14B): no binding | binding result (PTK2): no binding | binding result (LACRT): no binding | binding result (ANXA1): binds
B1: SYN23-26 (designed binder)
peptide 1: AHKVVPQRQIRHAYNRYGSG
peptide 2: FRGWAHIFFGPHVIYRGGSG
modifications: also: two chains joined by their C-termini to a branching Lys (epsilon/alpha N), Lys linker followed by Cys, Cys thiol biotinylated
notes: Lysine linker followed by cysteine; the thiol of the cysteine biotinylated for the protein array; also called anti-TRF synbody
